One test deals with Her3-Fc (R&D Systems) (UniProt P21860). The test is described as follows: SPR, Biacore T100; bispecific antibody captured (about 90 to 120 RU) by human Fab binder on a CM5 chip, Her3-Fc injected at various concentrations.
The target in test [1] is T1, human c-Met/Fc fusion protein (R&D Systems) (human, UniProt P08581 25-932).
T1 construct: Bought reagent; also called human c-Met/Fc protein; not shown: Fc part of the bought fusion protein, not described
The test is described as follows: ELISA, human c-Met/Fc fusion protein coated on the plate, hybridoma culture added. The method, then: Human c-Met/Fc fusion protein was seeded in an amount of […] (2 μg/mL)/well to microtiter plates and allowed to adhere to the surface of each well. The […] that remained unbound was removed by washing.
The hybridoma cell culture obtained in Reference Example 1.1.2 was added in an amount of […] to each well of the plates and incubated for 1 hour. The cells remaining unreacted were washed out with a sufficient amount of Tris-buffered saline and Tween 20 (TBST). Goat anti-mouse IgG-horseradish peroxidase (HRP) was added to the plates and incubated for 1 hour at room temperature. The plates were washed with a sufficient amount of TBST, followed by reacting the peroxidase with a substrate (OPD). Absorbance at 450 nm was measured on an ELISA reader.

T1 sequence (P08581 25-932 limits assumed): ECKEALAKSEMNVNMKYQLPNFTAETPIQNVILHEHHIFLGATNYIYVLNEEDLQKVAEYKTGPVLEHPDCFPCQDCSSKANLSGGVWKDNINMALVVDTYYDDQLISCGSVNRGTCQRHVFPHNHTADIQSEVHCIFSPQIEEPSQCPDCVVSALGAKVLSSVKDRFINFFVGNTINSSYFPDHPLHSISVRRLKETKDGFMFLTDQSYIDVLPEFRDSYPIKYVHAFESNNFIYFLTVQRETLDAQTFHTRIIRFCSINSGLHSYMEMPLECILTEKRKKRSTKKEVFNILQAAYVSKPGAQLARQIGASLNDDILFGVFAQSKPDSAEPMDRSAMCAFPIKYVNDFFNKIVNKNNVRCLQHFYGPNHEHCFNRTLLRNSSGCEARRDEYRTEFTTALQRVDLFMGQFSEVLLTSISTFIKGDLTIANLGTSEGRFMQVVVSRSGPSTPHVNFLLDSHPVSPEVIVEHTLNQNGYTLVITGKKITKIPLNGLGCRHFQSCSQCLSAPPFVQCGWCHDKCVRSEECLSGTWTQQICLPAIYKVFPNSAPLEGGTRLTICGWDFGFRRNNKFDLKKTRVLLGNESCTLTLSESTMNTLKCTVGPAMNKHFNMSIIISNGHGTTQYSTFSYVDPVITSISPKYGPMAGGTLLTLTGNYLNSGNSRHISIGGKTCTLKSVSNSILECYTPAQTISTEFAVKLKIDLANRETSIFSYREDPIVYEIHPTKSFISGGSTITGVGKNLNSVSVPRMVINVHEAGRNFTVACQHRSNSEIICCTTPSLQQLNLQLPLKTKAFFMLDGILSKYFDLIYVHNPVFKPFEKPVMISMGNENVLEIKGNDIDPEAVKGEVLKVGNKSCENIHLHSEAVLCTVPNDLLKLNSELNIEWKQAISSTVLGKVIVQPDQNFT
Chain of Her3-Fc (R&D Systems) (P21860 20-643 limits assumed): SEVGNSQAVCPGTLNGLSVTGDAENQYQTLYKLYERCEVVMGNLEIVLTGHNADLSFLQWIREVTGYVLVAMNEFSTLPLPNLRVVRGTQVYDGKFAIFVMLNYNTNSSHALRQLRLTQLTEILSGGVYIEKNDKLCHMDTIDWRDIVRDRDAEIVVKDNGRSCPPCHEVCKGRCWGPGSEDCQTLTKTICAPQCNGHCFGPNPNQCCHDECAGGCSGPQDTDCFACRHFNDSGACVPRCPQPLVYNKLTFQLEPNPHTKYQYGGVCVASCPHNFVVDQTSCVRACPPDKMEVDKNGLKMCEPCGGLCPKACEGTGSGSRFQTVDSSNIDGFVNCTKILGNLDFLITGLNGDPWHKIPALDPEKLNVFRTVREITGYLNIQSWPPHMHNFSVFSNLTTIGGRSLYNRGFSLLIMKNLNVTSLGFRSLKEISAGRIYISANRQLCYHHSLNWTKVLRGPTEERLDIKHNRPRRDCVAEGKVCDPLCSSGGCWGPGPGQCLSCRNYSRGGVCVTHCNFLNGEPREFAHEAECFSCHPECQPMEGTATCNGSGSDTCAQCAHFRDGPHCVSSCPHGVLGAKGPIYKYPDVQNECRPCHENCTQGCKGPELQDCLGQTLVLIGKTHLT

B1: MH3-05, anti-c-Met/anti-Her3 bispecific antibody in which the modified anti-Her3 scFv is fused at the c-terminal of L3-1Y-IgG2 (bispecific antibody, part only; not given: nothing needed for Her3 binding, not shown: another chain or arm of the molecule; small tags and cut ends)
heavy: EVQLVESGGGLVQPGGSLRLSCAASGFTFTDYYMSWVRQAPGKGLEWLGFIRNKANGYTTEYSASVKGRFTISRDNSKNTLYLQMNSLRAEDTAVYYCARDNWFAYWGQGTLVTVSSASTKGPSVFPLAPCSRSTSESTAALGCLVKDYFPEPVTVSWNSGALTSGVHTFPAVLQSSGLYSLSSVVTVPSSNFGTQTYTCNVDHKPSNTKVDKTVERKCCVECPPCPAPPVAGPSVFLFPPKPKDTLMISRTPEVTCVVVDVSHEDPEVQFNWYVDGVEVHNAKTKPREEQFNSTFRVVSVLTVVHQDWLNGKEYKCKVSNKGLPAPIEKTISKTKGQPREPQVYTLPPSREEMTKNQVSLTCLVKGFYPSDIAVEWESNGQPENNYKTTPPMLDSDGSFFLYSKLTVDKSRWQQGNVFSCSVMHEALHNHYTQKSLSLSPGKGGGGSGGGGSQVQLQESGGGLVKPGGSLRLSCAASGFTFSSYSMNWVRQAPGKGLEWVSSISSSSSYIYYADSVKGRFTISRDNAKNSLYLQMNSLRAEDTAVYYCAREDLTPFDYWGQGTLVTVSS
VL: LPVLTQPPSVSVAPGQTARITCGGDNIGSKSVHWYQQKPGQAPVLVVYDDSDRPSGIPERISGSNSGNTATLTISRVEAGDEADFYCQVWDNSVDLLFGGGTKLTVL
light: DIQMTQSPSSLSASVGDRVTITCKSSQSLLASGNQNNYLAWYQQKPGKAPKMLIIWASTRVSGVPSRFSGSGSGTDFTLTISSLQPEDFATYYCQQSYSRPYTFGQGTKVEIKRTVAAPSVFIFPPSDEQLKSGTASVVCLLNNFYPREAKVQWKVDNALQSGNSQESVTEQDSKDSTYSLSSTLTLSKADYEKHKVYACEVTHQGLSSPVTKSFNRGEC
modifications: In the real molecule the scFv-VL chain is joined covalently to the C-terminus of the heavy chain's VH (SEQ 115) through the undisclosed linker. It is written as a separate chain only because that linker has no letters.
For B1, the equilibrium dissociation constant (Kd) in the test with Her3-Fc (R&D Systems) was 0.55 nM.

B2: AbF46, mouse monoclonal antibody to c-Met (hybridoma KCLRF-BP-00220) (antibody, V domains shown)
VH: EVKLVESGGGLVQPGGSLRLSCATSGFTFTDYYMSWVRQPPGKALEWLGFIRNKANGYTTEYSASVKGRFTISRDNSQSILYLQMDTLRAEDSATYYCARDNWFAYWGQGTLVTVSA
VL: DILMTQSPSSLTVSAGEKVTMSCKSSQSLLASGNQNNYLAWHQQKPGRSPKMLIIWASTRVSGVPDRFIGSGSGTDFTLTINSVQAEDLAVYYCQQSYSAPLTFGAGTKLELK
notes: Tested as hybridoma culture in the screening ELISA; the single clone selected produces AbF46; also called mouse antibody AbF46
Consider B2, for which the binding result in test [1] was “binds”.
